{
  "source": "patent US20190300590A1",
  "about": "(PROTAGONIST THERAPEUTICS, published 2019)",
  "key": {"[1]": {"biological_target": "T1, IL23R_huFC (human, UniProt Q5VWK5 24-353)", "T1 sequence (looked up)": "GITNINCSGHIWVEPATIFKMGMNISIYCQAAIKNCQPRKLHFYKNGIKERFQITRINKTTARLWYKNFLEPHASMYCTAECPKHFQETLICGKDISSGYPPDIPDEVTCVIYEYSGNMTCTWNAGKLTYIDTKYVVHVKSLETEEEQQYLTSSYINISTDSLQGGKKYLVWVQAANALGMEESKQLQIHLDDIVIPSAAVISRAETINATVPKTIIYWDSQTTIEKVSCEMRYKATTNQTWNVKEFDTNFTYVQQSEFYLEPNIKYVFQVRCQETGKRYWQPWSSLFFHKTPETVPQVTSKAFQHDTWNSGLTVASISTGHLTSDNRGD", "assay": "IL23-IL23R competitive ELISA, IC50 grade"}, "[2]": {"biological_target": "mixture of IL-12Rβ1_huFC and IL-23R_huFC (mixed surface) (human, UniProt P42701 24-540; Q5VWK5 24-353, limits assumed)", "assay": "SPR, mixed surface of IL-12Rβ1 and IL-23R"}},
  "data": [
    {"binder": "CADWVCYWHTFGAK (not fully specified; Ac-; [β-Ala]; [(D)Lys]; DIG through Lysine)", "note": "[(Ac-CADWVCYWHTFG-[β-Ala]-[(D)Lys]-OH)2DIG]", "values": [
      {"measurement": "IC50", "setting": "[1]", "value": "25 to 100", "unit": "nM"}
    ]},
    {"binder": "Recombinant human IL-23 (Humanzyme) (ligand) chain 1: RAVPGGSSPAWTQCQQLSQKLCTLAWSAHPLVGHMDLREEGDEETTNDVPHIQCGDGCDPQGLRDNSQFCLQRIHQGLIFYEKLLGSDIFTGEPSLLPDSPVGQLHASLLGLSQLLQPEGHHWETQQIPSLSPSQPWQRLLLRFKILRSLQAFVAVAARVFAHGAATLSP chain 2: IWELKKDVYVVELDWYPDAPGEMVVLTCDTPEEDGITWTLDQSSEVLGSGKTLTIQVKEFGDAGQYTCHKGGEVLSHSLLLLHKKEDGIWSTDILKDQKEPKNKTFLRCEAKNYSGRFTCWWLTTISTDLTFSVKSSRGSSDPQGVTCGAATLSAERVRGDNKEYEYSVECQEDSACPAAEESLPIEVMVDAVHKLKYENYTSSFFIRDIIKPDPPKNLQLKPLKNSRQVEVSWEYPDTWSTPHSYFSLTFCVQVQGKSKREKKDRVFTDKTSATVICRKNASISVRAQDRYYSSSWSEWASVPCS", "values": [
      {"measurement": "fold of affinity against Compound C", "setting": "[2]", "value": "~14", "unit": "fold"}
    ]}
  ]
}
